Experimental data as given in paper PMC10786891, “Massively parallel profiling of RNA-targeting CRISPR-Cas13d”.

T1: EsCas13d, nuclease-dead (Eubacterium siraeum, UniProt B0MS50, R295A;H300A;R849A;H854A)
T1 sequence: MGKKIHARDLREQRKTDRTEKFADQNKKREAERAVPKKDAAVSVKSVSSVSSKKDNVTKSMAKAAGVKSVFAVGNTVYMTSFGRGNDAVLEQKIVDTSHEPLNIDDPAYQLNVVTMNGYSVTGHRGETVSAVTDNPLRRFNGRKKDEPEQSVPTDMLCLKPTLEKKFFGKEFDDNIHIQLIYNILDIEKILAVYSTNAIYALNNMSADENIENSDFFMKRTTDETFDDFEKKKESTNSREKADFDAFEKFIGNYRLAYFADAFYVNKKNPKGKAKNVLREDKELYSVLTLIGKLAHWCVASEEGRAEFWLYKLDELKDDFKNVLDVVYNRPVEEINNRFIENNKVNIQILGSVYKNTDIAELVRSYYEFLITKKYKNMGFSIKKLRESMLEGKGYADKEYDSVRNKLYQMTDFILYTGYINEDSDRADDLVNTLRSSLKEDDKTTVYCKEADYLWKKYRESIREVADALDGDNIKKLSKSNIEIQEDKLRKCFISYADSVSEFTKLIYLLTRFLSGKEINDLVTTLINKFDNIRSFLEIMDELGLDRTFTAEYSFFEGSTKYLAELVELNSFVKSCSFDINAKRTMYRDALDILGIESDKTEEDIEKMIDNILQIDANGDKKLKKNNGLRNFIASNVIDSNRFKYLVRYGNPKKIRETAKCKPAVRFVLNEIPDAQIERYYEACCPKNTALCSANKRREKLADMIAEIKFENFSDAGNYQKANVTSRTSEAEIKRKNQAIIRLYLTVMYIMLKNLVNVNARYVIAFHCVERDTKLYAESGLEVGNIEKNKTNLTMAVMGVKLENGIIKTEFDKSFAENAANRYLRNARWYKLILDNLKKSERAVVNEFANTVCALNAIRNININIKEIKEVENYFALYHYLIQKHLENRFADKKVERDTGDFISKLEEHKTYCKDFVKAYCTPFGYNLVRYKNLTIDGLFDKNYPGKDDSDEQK


Molecular target: T1, EsCas13d, nuclease-dead
Assay: crRNA (strand 1, pre-loaded); Mg2+; 40 mM Tris-HCl pH 7.5, 150 mM NaCl, 6 mM MgCl2, 1 mM DTT, 0.1% Tween-20, 0.2 mg/ml BSA; 25 C; 10 min per concentration, then washed
Conditions: tags: His6-TwinStrep-SUMO cleaved; N-terminal SNAP kept (SNAP-Surface 488); label: 3' end held by stalled T7 RNA polymerase

Binder | Kd [nM]
target 1 MT 5'PFS ACA 3'PFS CUA (mixed) RNA 1: CACCCGUGCAAAAAUGCAGGGGUCUAAAACUGAGCGGAUAACCUCUCUAUGG RNA 2: GGGAAUGGAUCCACAUCUACGAAUUCACACCAUAGAGAGGUUAUCCGCUCACUAAGAUCGGAAGAGCACACGU | 12.7 ± 3.5
target 1 MT 5'PFS AGG 3'PFS AAA (mixed) RNA 1: CACCCGUGCAAAAAUGCAGGGGUCUAAAACUGAGCGGAUAACCUCUCUAUGG RNA 2: GGGAAUGGAUCCACAUCUACGAAUUCAGGCCAUAGAGAGGUUAUCCGCUCAAAAAGAUCGGAAGAGCACACGU | ~50
target 1 MT 5'PFS ACC 3'PFS UCU (mixed) RNA 1: CACCCGUGCAAAAAUGCAGGGGUCUAAAACUGAGCGGAUAACCUCUCUAUGG RNA 2: GGGAAUGGAUCCACAUCUACGAAUUCACCCCAUAGAGAGGUUAUCCGCUCAUCUAGAUCGGAAGAGCACACGU | 8.2 ± 3.2
target 1 MT 5'PFS GGC 3'PFS UGC (mixed) RNA 1: CACCCGUGCAAAAAUGCAGGGGUCUAAAACUGAGCGGAUAACCUCUCUAUGG RNA 2: GGGAAUGGAUCCACAUCUACGAAUUCGGCCCAUAGAGAGGUUAUCCGCUCAUGCAGAUCGGAAGAGCACACGU | 8.6 ± 1.35
target 1 MT 5'PFS UCA 3'PFS CAU (mixed) RNA 1: CACCCGUGCAAAAAUGCAGGGGUCUAAAACUGAGCGGAUAACCUCUCUAUGG RNA 2: GGGAAUGGAUCCACAUCUACGAAUUCUCACCAUAGAGAGGUUAUCCGCUCACAUAGAUCGGAAGAGCACACGU | 14.7 ± 4.85
target 1 MT 5'PFS AGG 3'PFS CCG (mixed) RNA 1: CACCCGUGCAAAAAUGCAGGGGUCUAAAACUGAGCGGAUAACCUCUCUAUGG RNA 2: GGGAAUGGAUCCACAUCUACGAAUUCAGGCCAUAGAGAGGUUAUCCGCUCACCGAGAUCGGAAGAGCACACGU | 28.3 ± 6.35
target 1 MT 5'PFS CUA 3'PFS UCG (mixed) RNA 1: CACCCGUGCAAAAAUGCAGGGGUCUAAAACUGAGCGGAUAACCUCUCUAUGG RNA 2: GGGAAUGGAUCCACAUCUACGAAUUCCUACCAUAGAGAGGUUAUCCGCUCAUCGAGAUCGGAAGAGCACACGU | 6 ± 0.95
target 1 MT 5'PFS UGC 3'PFS UGU (mixed) RNA 1: CACCCGUGCAAAAAUGCAGGGGUCUAAAACUGAGCGGAUAACCUCUCUAUGG RNA 2: GGGAAUGGAUCCACAUCUACGAAUUCUGCCCAUAGAGAGGUUAUCCGCUCAUGUAGAUCGGAAGAGCACACGU | 38 ± 13
target 1 MT 5'PFS UCA 3'PFS CAC (mixed) RNA 1: CACCCGUGCAAAAAUGCAGGGGUCUAAAACUGAGCGGAUAACCUCUCUAUGG RNA 2: GGGAAUGGAUCCACAUCUACGAAUUCUCACCAUAGAGAGGUUAUCCGCUCACACAGAUCGGAAGAGCACACGU | 11 ± 5.5
target 1 MT 5'PFS CCU 3'PFS UCU (mixed) RNA 1: CACCCGUGCAAAAAUGCAGGGGUCUAAAACUGAGCGGAUAACCUCUCUAUGG RNA 2: GGGAAUGGAUCCACAUCUACGAAUUCCCUCCAUAGAGAGGUUAUCCGCUCAUCUAGAUCGGAAGAGCACACGU | 14.4 ± 3.1
target 1 MT 5'PFS GAA 3'PFS CGU (mixed) RNA 1: CACCCGUGCAAAAAUGCAGGGGUCUAAAACUGAGCGGAUAACCUCUCUAUGG RNA 2: GGGAAUGGAUCCACAUCUACGAAUUCGAACCAUAGAGAGGUUAUCCGCUCACGUAGAUCGGAAGAGCACACGU | 15.5 ± 4.5
target 1 MT 5'PFS GAC 3'PFS AUA (mixed) RNA 1: CACCCGUGCAAAAAUGCAGGGGUCUAAAACUGAGCGGAUAACCUCUCUAUGG RNA 2: GGGAAUGGAUCCACAUCUACGAAUUCGACCCAUAGAGAGGUUAUCCGCUCAAUAAGAUCGGAAGAGCACACGU | 25 ± 7.05
target 1 MT 5'PFS GAC 3'PFS AUU (mixed) RNA 1: CACCCGUGCAAAAAUGCAGGGGUCUAAAACUGAGCGGAUAACCUCUCUAUGG RNA 2: GGGAAUGGAUCCACAUCUACGAAUUCGACCCAUAGAGAGGUUAUCCGCUCAAUUAGAUCGGAAGAGCACACGU | 21.4 ± 4.45
target 1 MT 5'PFS GGC 3'PFS AGU (mixed) RNA 1: CACCCGUGCAAAAAUGCAGGGGUCUAAAACUGAGCGGAUAACCUCUCUAUGG RNA 2: GGGAAUGGAUCCACAUCUACGAAUUCGGCCCAUAGAGAGGUUAUCCGCUCAAGUAGAUCGGAAGAGCACACGU | 17.1 ± 2.45
target 1 MT 5'PFS GGC 3'PFS AGG (mixed) RNA 1: CACCCGUGCAAAAAUGCAGGGGUCUAAAACUGAGCGGAUAACCUCUCUAUGG RNA 2: GGGAAUGGAUCCACAUCUACGAAUUCGGCCCAUAGAGAGGUUAUCCGCUCAAGGAGAUCGGAAGAGCACACGU | 33.5 ± 5
target 1 MT 5'PFS AAC 3'PFS UCU (mixed) RNA 1: CACCCGUGCAAAAAUGCAGGGGUCUAAAACUGAGCGGAUAACCUCUCUAUGG RNA 2: GGGAAUGGAUCCACAUCUACGAAUUCAACCCAUAGAGAGGUUAUCCGCUCAUCUAGAUCGGAAGAGCACACGU | 22.5 ± 6.5
target 1 MT 5'PFS CUA 3'PFS UCC (mixed) RNA 1: CACCCGUGCAAAAAUGCAGGGGUCUAAAACUGAGCGGAUAACCUCUCUAUGG RNA 2: GGGAAUGGAUCCACAUCUACGAAUUCCUACCAUAGAGAGGUUAUCCGCUCAUCCAGAUCGGAAGAGCACACGU | 16.2 ± 4.8
target 1 MT 5'PFS AAA 3'PFS AAG (mixed) RNA 1: CACCCGUGCAAAAAUGCAGGGGUCUAAAACUGAGCGGAUAACCUCUCUAUGG RNA 2: GGGAAUGGAUCCACAUCUACGAAUUCAAACCAUAGAGAGGUUAUCCGCUCAAAGAGAUCGGAAGAGCACACGU | 25.5 ± 6.5
target 1 MT 5'PFS AAC 3'PFS UCC (mixed) RNA 1: CACCCGUGCAAAAAUGCAGGGGUCUAAAACUGAGCGGAUAACCUCUCUAUGG RNA 2: GGGAAUGGAUCCACAUCUACGAAUUCAACCCAUAGAGAGGUUAUCCGCUCAUCCAGAUCGGAAGAGCACACGU | ~13.5
target 1 MT 5'PFS ACC 3'PFS UCG (mixed) RNA 1: CACCCGUGCAAAAAUGCAGGGGUCUAAAACUGAGCGGAUAACCUCUCUAUGG RNA 2: GGGAAUGGAUCCACAUCUACGAAUUCACCCCAUAGAGAGGUUAUCCGCUCAUCGAGAUCGGAAGAGCACACGU | 8.5 ± 3.6
target 1 MT 5'PFS GAC 3'PFS AUC (mixed) RNA 1: CACCCGUGCAAAAAUGCAGGGGUCUAAAACUGAGCGGAUAACCUCUCUAUGG RNA 2: GGGAAUGGAUCCACAUCUACGAAUUCGACCCAUAGAGAGGUUAUCCGCUCAAUCAGAUCGGAAGAGCACACGU | ~29
target 1 MT 5'PFS AGG 3'PFS AAU (mixed) RNA 1: CACCCGUGCAAAAAUGCAGGGGUCUAAAACUGAGCGGAUAACCUCUCUAUGG RNA 2: GGGAAUGGAUCCACAUCUACGAAUUCAGGCCAUAGAGAGGUUAUCCGCUCAAAUAGAUCGGAAGAGCACACGU | ~60
target 1 MT 5'PFS AGC 3'PFS AUC (mixed) RNA 1: CACCCGUGCAAAAAUGCAGGGGUCUAAAACUGAGCGGAUAACCUCUCUAUGG RNA 2: GGGAAUGGAUCCACAUCUACGAAUUCAGCCCAUAGAGAGGUUAUCCGCUCAAUCAGAUCGGAAGAGCACACGU | ~30.5
target 1 MT 5'PFS UCA 3'PFS CAG (mixed) RNA 1: CACCCGUGCAAAAAUGCAGGGGUCUAAAACUGAGCGGAUAACCUCUCUAUGG RNA 2: GGGAAUGGAUCCACAUCUACGAAUUCUCACCAUAGAGAGGUUAUCCGCUCACAGAGAUCGGAAGAGCACACGU | ~84
target 1 U3G,C7A (mixed) RNA 1: CACCCGUGCAAAAAUGCAGGGGUCUAAAACUGAGCGGAUAACCUCUCUAUGG RNA 2: GGGAAUGGAUCCACAUCUACGAAUUCGUACCAUAGAGAGGUUAUACGCGCACCGAGAUCGGAAGAGCACACGU | 7.19 ± 0.31
target 1 MT 5'PFS ACC 3'PFS UCC (mixed) RNA 1: CACCCGUGCAAAAAUGCAGGGGUCUAAAACUGAGCGGAUAACCUCUCUAUGG RNA 2: GGGAAUGGAUCCACAUCUACGAAUUCACCCCAUAGAGAGGUUAUCCGCUCAUCCAGAUCGGAAGAGCACACGU | ~21
target 1 MT 5'PFS CAG 3'PFS AAA (mixed) RNA 1: CACCCGUGCAAAAAUGCAGGGGUCUAAAACUGAGCGGAUAACCUCUCUAUGG RNA 2: GGGAAUGGAUCCACAUCUACGAAUUCCAGCCAUAGAGAGGUUAUCCGCUCAAAAAGAUCGGAAGAGCACACGU | ~51.5
target 1 A16U (mixed) RNA 1: CACCCGUGCAAAAAUGCAGGGGUCUAAAACUGAGCGGAUAACCUCUCUAUGG RNA 2: GGGAAUGGAUCCACAUCUACGAAUUCGUACCAUAGUGAGGUUAUCCGCUCACCGAGAUCGGAAGAGCACACGU | 58 ± 9
